Five compounds from US20090232730A1, “METHOD OF PRODUCING IMMUNOLIPOSOMES AND COMPOSITIONS THEREOF” (IMMUNE DISEASE INSTITUTE, INC., priority 2006, published 2009) can be followed below.

Data set [1] relates to K562 mock cells. As to the kind of experiment: MTT cytotoxicity assay. Particulars: MMC formulations. The class given is cell-based, human. The procedure:
K562 cells (either K562 mock cells or K562 Mac-1 cells, stably transfected with Mac-1 integrin) were grown in 1×RPMI supplemented with 10% FBS. Exponentially growing cells were seeded at 2.5×10^5/ml in 24-well plates and either left untreated or treated with graded dosages of free mitomycin (MMC) or equivalent doses of MMC formulated in liposomes. The treatment media was selected from the following MMC formulations: (i) the test system, MMC-loaded tHA-CBRM1/29, (ii) MMC-loaded ULV-HA, (iii) free MMC, (iv) free MMC dissolved in a suspension of empty tHA-CBRM1/29 and (v) free MMC dissolved in a suspension of empty ULV-HA. In addition, there were 3 drug-free controls, consisting of: (vi) no addition (i.e., only the serum-supplemented growth medium), (vii) empty tHA-CBRM1/29 and (viii) empty ULV. In all formulations, the solvent was serum-supplemented cell growth medium. Cells were washed twice with Hepes-buffered saline (HBS) then re-incubated with drug-free media for additional 48 hours. Cells were spun down and re-suspended in 0.5 ml of MTT containing medium (0.5 mg/ml), and incubated at 37° C. for 1 h. […] After 5 min at room temperature, samples were spun down and 250-μl aliquots were used for absorbance measurements. Cell viability was measured as the difference in the absorbance 550 and 620 nm. […] Data are expressed as a percent of the control healthy growing cells.

The target in data set [2] is integrin Mac-1 (αMβ2) (human) (UniProt P11215). As to the kind of experiment: flow cytometry on K562 cells expressing Mac-1; free antibody after lyophilization and reconstitution. (In general: A flow cytometer gives signals particle by particle.)
Data set [3] has the same target. As to the kind of experiment: flow cytometry on K562 cells expressing Mac-1; free antibody before lyophilization.
The test system of data set [4] is CD4. As to the kind of experiment: CD4 silencing in human primary CD4+ cells by flow cytometry. Type of data set: cell-based. Particulars: formulated in immunomicelles, 30 pmol-1000 pmol. On the procedure:
Human neutrophils or lymphocytes were isolated from freshly drawn blood as described (Carman et al. J. Immunology, 171 (2003) 6135-6144). CD4 blasts were generated by isolating CD4+ T cells from peripheral blood lymphocytes of normal donors by immunomagnetic beads (Miltenyi Biotech) as previously reported (Novina et al. Nature Med. 2002; 8(7): 681-6) and culturing them in RPMI 1640 containing 10% FCS for 3 days in the presence of 4 μg/mL phytohemagglutinin (PHA), then expend the cells with the same media (without PHA) but with IL-2 at 10 ng/mL for 3 more days.
siRNA transfections were preformed with different formulations of siRNA targeted against human CD4, siRNA-luciferase, or siRNA-cy3. As a positive control we used Fugene 6 and ExGen 500 (PEI) transfection reagents. Cells were seeded in 24 or 96 well plates at a density of 5000−2×10^5 cells/well. […]

For data set [5], the target named is integrin Mac-1 (αMβ2) (human) (UniProt P11215). As to the kind of experiment: flow cytometry on K562 cells expressing Mac-1; carrier after lyophilization and reconstitution (no cryoprotectant).
The target is the same in data set [6]. As to the kind of experiment: flow cytometry on K562 cells expressing Mac-1; carrier before lyophilization.
The target is the same in data set [7]. As to the kind of experiment: cell-based or functional assay.
The target is the same in data set [8]. As to the kind of experiment: flow cytometry on K562 cells expressing Mac-1; carrier after lyophilization and reconstitution.

{P} = phosphate

Regarding `CO[C@@]12[C@H](COC(N)=O)C3=C(C(=O)C(C)=C(N)C3=O)N1C[C@@H]1N[C@@H]12` [free MMC, mitomycin C], the cell survival result in data set [1] is reported as “no significant changes in the cell survival”.

Regarding CBRM1/29-cy3 (antibody), the MFI was found to be 73 in data set [2] and 82 in data set [3].

“CD4-siRNA: siRNA targeted against human CD4, sense 5′-P.GAUCAAGAGACUCCUCAGUUU-3′, antisense 5′-P.ACUGAGGAGUCUCUUGAUCUU-3′ (RNA, 5' {P}, backbone not given here)”: in data set [4], the “plateau of CD4 silencing dose response curve” value was found to be 500 pmol.

On to ULV-CBRM1/29-cy3 (antibody), for which the results for the mean fluorescence intensity in data set [5] and in data set [6] were 5.6 and 175, respectively.

In the case of tHA-CBRM1/29-cy3 (antibody), the MFI in data set [6] worked out at 161; in data set [8] it was 172. For the same compound, the IC50 (MTT cytotoxicity assay, MMC entrapped in the carrier, K562 cells expressing Mac-1) in data set [7] came out at 1750 nM. In data set [7], this compound gave a fold difference of IC50 against ULV-HA (no antibody), MTT cytotoxicity assay on K562 cells expressing Mac-1 of 100 fold.
